In ChEMBL document CHEMBL5252635, “The Mycobacterium tuberculosis mycothiol S-transferase is divalent metal-dependent for mycothiol binding and transfer” (2023) one finds Km data, which are given here for one protein.

Substrate in series [1]: CC(=O)N[C@@H](CS)C(=O)N[C@H]1[C@@H](O[C@@H]2[C@H](O)[C@H](O)[C@@H](O)[C@H](O)[C@H]2O)O[C@H](CO)[C@@H](O)[C@@H]1O
The settings on record: Mycobacterium tuberculosis.
Description: Binding affinity to Mycobacterium tuberculosis MST assessed as Km by differential scanning fluorimetry method

Substrate in series [2]: CC(=O)N[C@@H](CS)C(=O)N[C@H]1[C@@H](O[C@@H]2[C@H](O)[C@H](O)[C@@H](O)[C@H](O)[C@H]2O)O[C@H](CO)[C@@H](O)[C@@H]1O
Description: Binding affinity to Mycobacterium tuberculosis MST assessed as Km in presence of zinc
To be noted: Mycobacterium tuberculosis. This is another data set of the same source.

B1: Conserved protein (Mycobacterium tuberculosis), O53728 (protein)
chain: MASTDAAAQELLRDAFTRLIEHVDELTDGLTDQLACYRPTPSANSIAWLLWHSARVQDIQVAHVAGVEEVWTRDGWVDRFGLDLPRHDTGYGHRPEDVAKVRAPADLLSGYYHAVHKLTLEYIAGMTADELSRVVDTSWNPPVTVSARLVSIVDDCAQHLGQAAYLRGIAR
A word on the Km: it is the concentration of substrate that gives half-maximal velocity. Regarding B1, the Km amounted to 18.4 µM in series [1] and 9.8 µM in series [2].
